Data from paper PMC10907282 (Proceedings of the National Academy of Sciences of the …, 2024).

Molecular target: purified SOS3 (Arabidopsis thaliana, UniProt O81223 1-222)
Test: other fluorescence titration

purified SOS3, sequence (O81223 whole entry): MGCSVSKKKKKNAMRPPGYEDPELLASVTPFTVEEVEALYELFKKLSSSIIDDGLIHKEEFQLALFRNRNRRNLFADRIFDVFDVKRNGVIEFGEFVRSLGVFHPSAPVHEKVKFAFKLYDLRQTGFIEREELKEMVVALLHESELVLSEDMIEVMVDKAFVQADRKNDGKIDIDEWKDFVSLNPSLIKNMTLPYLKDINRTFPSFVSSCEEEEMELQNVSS

- binding result: binds
Binder: KKRILEYTKYEMLNKALRAFQDLGD (peptide, UniProt Q9LKW9 460-484, looked up) [synthetic peptide spanning the S3BD of SOS1, residues K460 to D484]
